From the Human Domainome abundance scans (Beltran et al. 2025)
± gives the uncertainty stated by the source.

B1: Homeobox protein cut-like 2, residues 895 to 963; numbered along this chain, O14529 (parent)
chain: EVDTLELTRQVKEKLAKNGICQRIFGEKVLGLSQGSVSDMLSRPKPWSKLTQKGREPFIRMQLWLSDQL

Variants of: B1
Assay: abundance fitness (aPCA) (normalised: wild type 0, dead -1); higher = more abundant; growth selection in yeast, the domain comes from the species named
Conditions: Homo sapiens
Work on M61G yielded an abundance fitness of -0.735 ± 0.055. In the case of R60M, the abundance fitness is reported as -0.38 ± 0.042. Work on E56S yielded an abundance fitness of -0.203 ± 0.036. Work on R9F yielded an abundance fitness of -0.181 ± 0.046. Variant L32A has an abundance fitness of -0.279 ± 0.078. For S42V, the abundance fitness was -0.146 ± 0.036. In the case of D39H, the abundance fitness is reported as -0.279 ± 0.12. Variant T8H has an abundance fitness of -0.19 ± 0.046. K53Q gave an abundance fitness of -0.146 ± 0.035. Variant S66W has an abundance fitness of -0.08 ± 0.052. In the case of I20R, the abundance fitness is reported as -0.409 ± 0.051. With E13N the abundance fitness was -0.116 ± 0.09. Variant F25I has an abundance fitness of -0.711 ± 0.14. Work on D3E yielded an abundance fitness of -0.277 ± 0.041. L32T showed an abundance fitness of -0.211 ± 0.047. K28E gave an abundance fitness of -0.026 ± 0.043. In the case of K12N, the abundance fitness is reported as -0.27 ± 0.086. R60Q showed an abundance fitness of -0.111 ± 0.032. With Q52T the abundance fitness was 0.046 ± 0.042. Variant L69E has an abundance fitness of -0.068 ± 0.064. In the case of I59H, the abundance fitness is reported as 0.051 ± 0.047. R60D showed an abundance fitness of -0.905 ± 0.36. L15A showed an abundance fitness of 0.038 ± 0.14. S66Y showed an abundance fitness of -0.001 ± 0.089. L41W gave an abundance fitness of -0.25 ± 0.055. Variant N18E has an abundance fitness of 0.045 ± 0.063. Work on K17L yielded an abundance fitness of -0.087 ± 0.029. L15G gave an abundance fitness of -0.113 ± 0.027. In the case of Q68G, the abundance fitness is reported as -0.13 ± 0.03. Work on E27V yielded an abundance fitness of -0.18 ± 0.025. For W64G, the abundance fitness was -0.942 ± 0.093. In the case of K53N, the abundance fitness is reported as -0.233 ± 0.095. For E1L, the abundance fitness was -0.3 ± 0.045. G54I showed an abundance fitness of 0.046 ± 0.049. With R9S the abundance fitness was -0.16 ± 0.033. G31E showed an abundance fitness of -0.48 ± 0.1. With L69T the abundance fitness was -0.199 ± 0.059. With L5W the abundance fitness was -0.021 ± 0.033. Work on L63R yielded an abundance fitness of 0.096 ± 0.051. R23G showed an abundance fitness of -0.103 ± 0.048. In the case of V29C, the abundance fitness is reported as -0.104 ± 0.064. L65P gave an abundance fitness of -1.03 ± 0.051. Work on S36M yielded an abundance fitness of -0.024 ± 0.028. Variant L7R has an abundance fitness of -0.045 ± 0.03. In the case of E13A, the abundance fitness is reported as -0.072 ± 0.044. C21P showed an abundance fitness of 0.027 ± 0.057. D39N gave an abundance fitness of -0.188 ± 0.15. W47P gave an abundance fitness of -0.964 ± 0.057. S66K gave an abundance fitness of 0.109 ± 0.041. K12A showed an abundance fitness of -0.372 ± 0.058. For R55S, the abundance fitness was -0.559 ± 0.053. Variant C21N has an abundance fitness of 0.015 ± 0.088. E56N gave an abundance fitness of -0.348 ± 0.14. In the case of Q68Y, the abundance fitness is reported as -0.105 ± 0.044. Variant P44H has an abundance fitness of -0.241 ± 0.05. L15N showed an abundance fitness of -0.184 ± 0.059. Work on L41G yielded an abundance fitness of -0.107 ± 0.11. For V29Y, the abundance fitness was -0.145 ± 0.052. For R43E, the abundance fitness was -0.124 ± 0.071. With L63M the abundance fitness was 0.041 ± 0.047. D39A gave an abundance fitness of -0.063 ± 0.09. Variant L32R has an abundance fitness of -0.179 ± 0.052. G19A showed an abundance fitness of -0.32 ± 0.095. Work on P57S yielded an abundance fitness of -0.034 ± 0.033. E27Q gave an abundance fitness of -0.007 ± 0.033. K53C gave an abundance fitness of -0.405 ± 0.16. Work on S66H yielded an abundance fitness of 0.005 ± 0.092. In the case of K49Y, the abundance fitness is reported as -0.301 ± 0.047. L63N showed an abundance fitness of -0.006 ± 0.07. L7F gave an abundance fitness of -0.141 ± 0.048. For T4I, the abundance fitness was -0.126 ± 0.059. D39R gave an abundance fitness of -0.456 ± 0.16. In the case of T4F, the abundance fitness is reported as -0.006 ± 0.063. E6S showed an abundance fitness of -0.095 ± 0.047. Work on L50F yielded an abundance fitness of -0.315 ± 0.052. L50G gave an abundance fitness of -0.652 ± 0.085. I59M showed an abundance fitness of -0.046 ± 0.041. For E6H, the abundance fitness was -0.142 ± 0.34. Work on R60S yielded an abundance fitness of -0.396 ± 0.034. With L5G the abundance fitness was -0.061 ± 0.03. Variant L5I has an abundance fitness of 0.024 ± 0.045. With R9W the abundance fitness was -0.385 ± 0.03. For T4H, the abundance fitness was -0.186 ± 0.051. I24A gave an abundance fitness of -0.117 ± 0.064.
